# From article PMC9482650, “Quantitative fragmentomics allow affinity mapping of interactomes” (Nature Communications, 2022)
# T1: LRRC7, Q96NW7
# T1 sequence (Q96NW7 1440-1537, limits assumed, looked up): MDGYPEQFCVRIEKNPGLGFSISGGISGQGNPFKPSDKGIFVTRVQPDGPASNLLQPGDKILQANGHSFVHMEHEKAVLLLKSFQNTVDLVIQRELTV
# T2: SNTG2, Q9NY99
# T2 sequence (Q9NY99 68-166, limits assumed, looked up): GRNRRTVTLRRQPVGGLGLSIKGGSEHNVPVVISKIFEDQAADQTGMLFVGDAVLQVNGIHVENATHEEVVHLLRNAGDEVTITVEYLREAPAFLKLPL
# T3: NHERF3_3, Q5T2W1
# T3 sequence (Q5T2W1 238-333, limits assumed, looked up): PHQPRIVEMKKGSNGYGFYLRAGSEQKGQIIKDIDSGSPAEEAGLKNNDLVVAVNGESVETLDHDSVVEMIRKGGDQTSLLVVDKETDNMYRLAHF
# T4: PARD3B_1, Q8TEW8
# T4 sequence (Q8TEW8 196-299, limits assumed, looked up): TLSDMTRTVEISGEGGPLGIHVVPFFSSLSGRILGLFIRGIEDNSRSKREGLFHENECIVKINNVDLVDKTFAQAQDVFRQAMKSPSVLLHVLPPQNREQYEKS
# T5: NHERF3_1, Q5T2W1
# T5 sequence (Q5T2W1 4-100, limits assumed, looked up): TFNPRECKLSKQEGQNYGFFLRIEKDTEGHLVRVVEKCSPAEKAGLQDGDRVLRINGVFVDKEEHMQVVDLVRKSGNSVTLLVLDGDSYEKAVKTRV
# T6: CARD11, Q9BXL7
# T6 sequence (Q9BXL7 662-765, limits assumed, looked up): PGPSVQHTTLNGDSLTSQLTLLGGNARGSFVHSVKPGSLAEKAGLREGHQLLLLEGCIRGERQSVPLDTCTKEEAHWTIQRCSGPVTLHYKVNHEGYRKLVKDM
# T7: MPP6, Q9NZW5
# T7 sequence (Q9NZW5 125-219, limits assumed, looked up): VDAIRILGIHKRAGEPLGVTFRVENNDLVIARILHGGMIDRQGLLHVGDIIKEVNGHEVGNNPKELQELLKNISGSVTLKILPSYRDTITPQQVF
# T8: SNTG1, Q9NSN8
# T8 sequence (Q9NSN8 52-150, limits assumed, looked up): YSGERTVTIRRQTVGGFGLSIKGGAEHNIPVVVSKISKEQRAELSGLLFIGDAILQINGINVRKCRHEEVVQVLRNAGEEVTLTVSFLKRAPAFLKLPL
# T9: APBA1_2, Q02410
# T9 sequence (Q02410 742-832, limits assumed, looked up): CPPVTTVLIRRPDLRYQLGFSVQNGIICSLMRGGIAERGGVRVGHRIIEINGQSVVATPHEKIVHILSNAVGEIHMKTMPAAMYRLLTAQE
# B1: FAM167B, Q9BTA0 (peptide)
# chain: NISARRFTLC
# B2: GAS2L2, Q8NHY3 (peptide)
# chain: PLPPEEESWV
# Target: LNX1_1, Q8TBB1
# Sequence (Q8TBB1 261-371): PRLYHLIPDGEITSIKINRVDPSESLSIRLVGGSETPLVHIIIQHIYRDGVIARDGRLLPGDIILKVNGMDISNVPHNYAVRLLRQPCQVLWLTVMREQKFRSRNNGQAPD
# Assay: holdup assay
# Parameters: key: below the threshold = too weak to quantify, mostly under pKd 3.1 to 4
# Settings: plain residues with an end cap or a label only (N-terminal biotin on a linker: ado-ado)
row,pKd,Binder
1,3.85,B1
2,below the threshold,B2

# Target: SCRIB_3, Q14160
# Sequence (Q14160 999-1103): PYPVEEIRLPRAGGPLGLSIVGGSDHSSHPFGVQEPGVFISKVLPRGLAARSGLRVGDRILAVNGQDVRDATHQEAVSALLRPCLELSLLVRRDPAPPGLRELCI
# Assay: holdup assay
# Parameters: key: below the threshold = too weak to quantify, mostly under pKd 3.1 to 4
# Settings: plain residues with an end cap or a label only (N-terminal biotin on a linker: ado-ado)
row,pKd,Binder
1,below the threshold,B1
2,4.99,B2

# Target: SCRIB_1, Q14160
# Sequence (Q14160 718-814): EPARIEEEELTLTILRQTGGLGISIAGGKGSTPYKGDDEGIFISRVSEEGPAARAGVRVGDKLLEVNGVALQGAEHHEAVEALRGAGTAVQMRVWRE
# Assay: holdup assay
# Parameters: key: below the threshold = too weak to quantify, mostly under pKd 3.1 to 4
# Settings: plain residues with an end cap or a label only (N-terminal biotin on a linker: ado-ado)
row,pKd,Binder
1,below the threshold,B1
2,4.21,B2

# Target: TJP1_3, Q07157
# Sequence (Q07157 416-512): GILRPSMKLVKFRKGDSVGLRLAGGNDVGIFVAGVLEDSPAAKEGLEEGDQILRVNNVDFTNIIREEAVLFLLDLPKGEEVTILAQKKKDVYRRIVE
# Assay: holdup assay
# Parameters: key: below the threshold = too weak to quantify, mostly under pKd 3.1 to 4
# Settings: plain residues with an end cap or a label only (N-terminal biotin on a linker: ado-ado)
row,pKd,Binder
1,below the threshold,B1
2,3.63,B2

# Target: AHNAK1, Q09666
# Sequence (Q09666 4-100): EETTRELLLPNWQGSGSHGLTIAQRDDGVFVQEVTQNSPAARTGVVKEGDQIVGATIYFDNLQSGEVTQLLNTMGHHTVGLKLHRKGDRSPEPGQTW
# Assay: holdup assay
# Parameters: key: below the threshold = too weak to quantify, mostly under pKd 3.1 to 4
# Settings: plain residues with an end cap or a label only (N-terminal biotin on a linker: ado-ado)
row,pKd,Binder
1,below the threshold,B1
2,below the threshold,B2

# Target: LDB3, O75112
# Sequence (O75112 1-94): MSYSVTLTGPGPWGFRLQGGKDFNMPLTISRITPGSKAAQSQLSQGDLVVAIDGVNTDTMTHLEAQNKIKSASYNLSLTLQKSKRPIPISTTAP
# Assay: holdup assay
# Parameters: key: below the threshold = too weak to quantify, mostly under pKd 3.1 to 4
# Settings: plain residues with an end cap or a label only (N-terminal biotin on a linker: ado-ado)
row,pKd,Binder
1,below the threshold,B1
2,below the threshold,B2

# Target: T1, LRRC7, Q96NW7
# Assay: holdup assay
# Parameters: key: below the threshold = too weak to quantify, mostly under pKd 3.1 to 4
# Settings: plain residues with an end cap or a label only (N-terminal biotin on a linker: ado-ado)
row,pKd,Binder
1,below the threshold,B1
2,4.96,B2

# Target: T2, SNTG2, Q9NY99
# Assay: holdup assay
# Parameters: key: below the threshold = too weak to quantify, mostly under pKd 3.1 to 4
# Settings: plain residues with an end cap or a label only (N-terminal biotin on a linker: ado-ado)
row,pKd,Binder
1,below the threshold,B1
2,4.24,B2

# Target: DLG5_1, Q8TDM6
# Sequence (Q8TDM6 617-713): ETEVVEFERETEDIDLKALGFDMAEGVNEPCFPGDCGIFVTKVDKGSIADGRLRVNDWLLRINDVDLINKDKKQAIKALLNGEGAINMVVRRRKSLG
# Assay: holdup assay
# Parameters: key: below the threshold = too weak to quantify, mostly under pKd 3.1 to 4
# Settings: plain residues with an end cap or a label only (N-terminal biotin on a linker: ado-ado)
row,pKd,Binder
1,below the threshold,B1
2,below the threshold,B2

# Target: T3, NHERF3_3, Q5T2W1
# Assay: holdup assay
# Parameters: key: below the threshold = too weak to quantify, mostly under pKd 3.1 to 4
# Settings: plain residues with an end cap or a label only (N-terminal biotin on a linker: ado-ado)
row,pKd,Binder
1,below the threshold,B1
2,below the threshold,B2

# Target: IL16_1, Q14005
# Sequence (Q14005 210-306): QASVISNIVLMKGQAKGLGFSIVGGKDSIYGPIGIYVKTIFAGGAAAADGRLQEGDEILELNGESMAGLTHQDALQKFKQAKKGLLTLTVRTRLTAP
# Assay: holdup assay
# Parameters: key: below the threshold = too weak to quantify, mostly under pKd 3.1 to 4
# Settings: plain residues with an end cap or a label only (N-terminal biotin on a linker: ado-ado)
row,pKd,Binder
1,below the threshold,B1
2,5.24,B2

# Target: T4, PARD3B_1, Q8TEW8
# Assay: holdup assay
# Parameters: key: below the threshold = too weak to quantify, mostly under pKd 3.1 to 4
# Settings: plain residues with an end cap or a label only (N-terminal biotin on a linker: ado-ado)
row,pKd,Binder
1,below the threshold,B1
2,3.95,B2

# Target: IL16_4, Q14005
# Sequence (Q14005 1229-1329): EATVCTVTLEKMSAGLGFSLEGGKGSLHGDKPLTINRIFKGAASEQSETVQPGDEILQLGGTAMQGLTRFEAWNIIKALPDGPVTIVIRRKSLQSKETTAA
# Assay: holdup assay
# Parameters: key: below the threshold = too weak to quantify, mostly under pKd 3.1 to 4
# Settings: plain residues with an end cap or a label only (N-terminal biotin on a linker: ado-ado)
row,pKd,Binder
1,below the threshold,B1
2,below the threshold,B2

# Target: Inadl_3, Q8NI35
# Sequence (Q8NI35 359-469): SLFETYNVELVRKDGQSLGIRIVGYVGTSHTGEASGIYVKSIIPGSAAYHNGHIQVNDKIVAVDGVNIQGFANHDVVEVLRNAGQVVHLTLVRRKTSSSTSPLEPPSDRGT
# Assay: holdup assay
# Parameters: key: below the threshold = too weak to quantify, mostly under pKd 3.1 to 4
# Settings: plain residues with an end cap or a label only (N-terminal biotin on a linker: ado-ado)
row,pKd,Binder
1,below the threshold,B1
2,3.78,B2

# Target: GRASP, Q7Z6J2
# Sequence (Q7Z6J2 96-193): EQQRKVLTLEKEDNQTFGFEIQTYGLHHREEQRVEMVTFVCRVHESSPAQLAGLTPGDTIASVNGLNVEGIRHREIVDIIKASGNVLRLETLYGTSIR
# Assay: holdup assay
# Parameters: key: below the threshold = too weak to quantify, mostly under pKd 3.1 to 4
# Settings: plain residues with an end cap or a label only (N-terminal biotin on a linker: ado-ado)
row,pKd,Binder
1,4.36,B1
2,4.23,B2

# Target: NHERF4_4, Q86UT5
# Sequence (Q86UT5 464-550): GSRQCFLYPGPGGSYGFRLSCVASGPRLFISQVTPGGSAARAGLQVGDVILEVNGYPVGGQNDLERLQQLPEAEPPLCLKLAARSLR
# Assay: holdup assay
# Parameters: key: below the threshold = too weak to quantify, mostly under pKd 3.1 to 4
# Settings: plain residues with an end cap or a label only (N-terminal biotin on a linker: ado-ado)
row,pKd,Binder
1,below the threshold,B1
2,below the threshold,B2

# Target: DLG2_2, Q15700
# Sequence (Q15700 189-283): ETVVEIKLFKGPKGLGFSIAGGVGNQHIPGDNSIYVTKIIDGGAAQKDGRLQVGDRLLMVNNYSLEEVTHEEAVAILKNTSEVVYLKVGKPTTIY
# Assay: holdup assay
# Parameters: key: below the threshold = too weak to quantify, mostly under pKd 3.1 to 4
# Settings: plain residues with an end cap or a label only (N-terminal biotin on a linker: ado-ado)
row,pKd,Binder
1,3.79,B1
2,4.19,B2

# Target: MAGI2_3, Q86UL8
# Sequence (Q86UL8 600-682): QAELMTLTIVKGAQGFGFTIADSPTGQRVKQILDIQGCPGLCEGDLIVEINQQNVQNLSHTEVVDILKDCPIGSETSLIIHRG
# Assay: holdup assay
# Parameters: key: below the threshold = too weak to quantify, mostly under pKd 3.1 to 4
# Settings: plain residues with an end cap or a label only (N-terminal biotin on a linker: ado-ado)
row,pKd,Binder
1,3.81,B1
2,4.13,B2

# Target: T5, NHERF3_1, Q5T2W1
# Assay: holdup assay
# Parameters: key: below the threshold = too weak to quantify, mostly under pKd 3.1 to 4
# Settings: plain residues with an end cap or a label only (N-terminal biotin on a linker: ado-ado)
row,pKd,Binder
1,4.11,B1
2,4.86,B2

# Target: T6, CARD11, Q9BXL7
# Assay: holdup assay
# Parameters: key: below the threshold = too weak to quantify, mostly under pKd 3.1 to 4
# Settings: plain residues with an end cap or a label only (N-terminal biotin on a linker: ado-ado)
row,pKd,Binder
1,below the threshold,B1
2,below the threshold,B2

# Target: DLG1_3, Q12959
# Sequence (Q12959 457-571): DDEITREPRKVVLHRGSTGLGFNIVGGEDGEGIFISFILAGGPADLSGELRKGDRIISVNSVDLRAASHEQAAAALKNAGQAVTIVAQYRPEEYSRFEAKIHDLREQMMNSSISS
# Assay: holdup assay
# Parameters: key: below the threshold = too weak to quantify, mostly under pKd 3.1 to 4
# Settings: plain residues with an end cap or a label only (N-terminal biotin on a linker: ado-ado)
row,pKd,Binder
1,4.06,B1
2,below the threshold,B2

# Target: T7, MPP6, Q9NZW5
# Assay: holdup assay
# Parameters: key: below the threshold = too weak to quantify, mostly under pKd 3.1 to 4
# Settings: plain residues with an end cap or a label only (N-terminal biotin on a linker: ado-ado)
row,pKd,Binder
1,below the threshold,B1
2,below the threshold,B2

# Target: LIMK2, P53671
# Sequence (P53671 143-248): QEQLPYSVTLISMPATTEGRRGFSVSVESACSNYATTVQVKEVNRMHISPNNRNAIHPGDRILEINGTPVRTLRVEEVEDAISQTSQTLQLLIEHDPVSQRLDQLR
# Assay: holdup assay
# Parameters: key: below the threshold = too weak to quantify, mostly under pKd 3.1 to 4
# Settings: plain residues with an end cap or a label only (N-terminal biotin on a linker: ado-ado)
row,pKd,Binder
1,below the threshold,B1
2,below the threshold,B2

# Target: GRIP2_6, Q9C0E4
# Sequence (Q9C0E4 648-740): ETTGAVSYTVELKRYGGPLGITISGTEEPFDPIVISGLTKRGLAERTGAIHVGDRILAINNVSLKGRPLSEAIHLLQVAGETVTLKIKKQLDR
# Assay: holdup assay
# Parameters: key: below the threshold = too weak to quantify, mostly under pKd 3.1 to 4
# Settings: plain residues with an end cap or a label only (N-terminal biotin on a linker: ado-ado)
row,pKd,Binder
1,3.57,B1
2,below the threshold,B2

# Target: T8, SNTG1, Q9NSN8
# Assay: holdup assay
# Parameters: key: below the threshold = too weak to quantify, mostly under pKd 3.1 to 4
# Settings: plain residues with an end cap or a label only (N-terminal biotin on a linker: ado-ado)
row,pKd,Binder
1,3.48,B1
2,5.6,B2

# Target: PICK1, Q9NRD5
# Sequence (Q9NRD5 17-115): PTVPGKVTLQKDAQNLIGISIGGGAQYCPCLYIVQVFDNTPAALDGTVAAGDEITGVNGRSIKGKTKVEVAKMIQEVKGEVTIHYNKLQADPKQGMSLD
# Assay: holdup assay
# Parameters: key: below the threshold = too weak to quantify, mostly under pKd 3.1 to 4
# Settings: plain residues with an end cap or a label only (N-terminal biotin on a linker: ado-ado)
row,pKd,Binder
1,below the threshold,B1
2,below the threshold,B2

# Target: PTPN3, P26045
# Sequence (P26045 505-587): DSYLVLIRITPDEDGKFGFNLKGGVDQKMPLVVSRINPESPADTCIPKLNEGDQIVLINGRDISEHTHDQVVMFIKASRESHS
# Assay: holdup assay
# Parameters: key: below the threshold = too weak to quantify, mostly under pKd 3.1 to 4
# Settings: plain residues with an end cap or a label only (N-terminal biotin on a linker: ado-ado)
row,pKd,Binder
1,3.61,B1
2,4.75,B2

# Target: T9, APBA1_2, Q02410
# Assay: holdup assay
# Parameters: key: below the threshold = too weak to quantify, mostly under pKd 3.1 to 4
# Settings: plain residues with an end cap or a label only (N-terminal biotin on a linker: ado-ado)
row,pKd,Binder
1,below the threshold,B1
2,5.02,B2
